This note sets out measurements from publication PMC12462528, “Molecular basis of ParA ATPase activation by the CTPase ParB during bacterial chromosome segregation” (Nature Communications, 2025).

For series [1], the system named is ParA (His6-ParA) (Myxococcus xanthus). Description: BLI. The conditions noted are these: 1 mM ATP, BLI: 25 mM HEPES/KOH pH 7.6, 100 mM KCl (150 or 500 mM where stated), 10 mM MgSO4, 1 mM DTT, 10 mM (so in the source) BSA, 0.01% Tween 20, temperature not stated.
Series [2] deals with T1, ParA (His6-ParA) (Myxococcus xanthus) (UniProt Q1CVJ3).
T1 sequence: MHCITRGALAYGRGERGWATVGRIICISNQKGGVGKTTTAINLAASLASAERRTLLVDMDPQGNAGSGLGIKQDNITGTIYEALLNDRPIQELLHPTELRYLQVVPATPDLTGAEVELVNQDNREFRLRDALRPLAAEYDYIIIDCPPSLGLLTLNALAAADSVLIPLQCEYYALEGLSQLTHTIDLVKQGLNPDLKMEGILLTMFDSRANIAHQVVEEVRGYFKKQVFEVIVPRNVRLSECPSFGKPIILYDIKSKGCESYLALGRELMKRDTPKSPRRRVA
Description: BLI. Particulars: BLI: 25 mM HEPES/KOH pH 7.6, 100 mM KCl (150 or 500 mM where stated), 10 mM MgSO4, 1 mM DTT, 10 mM (so in the source) BSA, 0.01% Tween 20; temperature not stated.

Series [3] concerns the target T2, ParA-D60A D60A (Myxococcus xanthus) (UniProt Q1CVJ3).
T2 sequence: T1 sequence with D60A
Description: BLI. The conditions noted are these: BLI: 25 mM HEPES/KOH pH 7.6, 100 mM KCl (150 or 500 mM where stated), 10 mM MgSO4, 1 mM DTT, 10 mM (so in the source) BSA, 0.01% Tween 20; temperature not stated.

In series [4] the target is T3, ParA-R238E (ParA*) R238E (Myxococcus xanthus) (UniProt Q1CVJ3).
T3 sequence: T1 sequence with R238E
Description: BLI. Particulars: BLI: 25 mM HEPES/KOH pH 7.6, 100 mM KCl (150 or 500 mM where stated), 10 mM MgSO4, 1 mM DTT, 10 mM (so in the source) BSA, 0.01% Tween 20; temperature not stated.

The target in series [5] is T4, ParB (Myxococcus xanthus) (UniProt Q1CVJ4).
T4 sequence: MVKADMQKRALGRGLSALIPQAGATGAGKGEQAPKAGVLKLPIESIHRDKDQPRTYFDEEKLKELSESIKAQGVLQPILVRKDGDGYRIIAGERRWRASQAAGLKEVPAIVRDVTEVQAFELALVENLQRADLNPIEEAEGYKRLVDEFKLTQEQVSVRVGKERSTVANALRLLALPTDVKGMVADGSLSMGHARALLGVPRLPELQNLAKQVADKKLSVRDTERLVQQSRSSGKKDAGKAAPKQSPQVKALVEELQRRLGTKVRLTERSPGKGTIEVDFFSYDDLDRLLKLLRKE
Description: BLI. The conditions noted are these: BLI: 25 mM HEPES/KOH pH 7.6, 100 mM KCl (150 or 500 mM where stated), 10 mM MgSO4, 1 mM DTT, 10 mM (so in the source) BSA, 0.01% Tween 20; temperature not stated.

The target of series [6] is T5, ParB delta21 del1-21 (Myxococcus xanthus) (UniProt Q1CVJ4).
T5 sequence: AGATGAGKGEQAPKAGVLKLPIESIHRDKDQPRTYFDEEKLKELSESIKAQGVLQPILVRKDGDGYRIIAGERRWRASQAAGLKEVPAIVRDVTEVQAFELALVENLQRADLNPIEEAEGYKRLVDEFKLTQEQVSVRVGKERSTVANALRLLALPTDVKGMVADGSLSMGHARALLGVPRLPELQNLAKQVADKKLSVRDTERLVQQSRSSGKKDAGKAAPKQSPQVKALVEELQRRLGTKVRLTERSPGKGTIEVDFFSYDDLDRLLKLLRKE
Description: BLI. Particulars: BLI: 25 mM HEPES/KOH pH 7.6, 100 mM KCl (150 or 500 mM where stated), 10 mM MgSO4, 1 mM DTT, 10 mM (so in the source) BSA, 0.01% Tween 20; temperature not stated.

Series [7] has as its target T6, ParB-Q52A (ParB*) Q52A (Myxococcus xanthus) (UniProt Q1CVJ4).
T6 sequence: T4 sequence with Q52A
The experiment in a line: BLI. Particulars: BLI: 25 mM HEPES/KOH pH 7.6, 100 mM KCl (150 or 500 mM where stated), 10 mM MgSO4, 1 mM DTT, 10 mM (so in the source) BSA, 0.01% Tween 20; temperature not stated.

The target in another series is T7, ParB-Q52A (Myxococcus xanthus DK1622, UniProt Q1CVJ4 1-296, Q52A).
T7 construct: ParB of Myxococcus xanthus DK1622, variant lacking CTPase activity; Closed clamps formed with CTP and parS DNA; also called CTP hydrolysis-deficient ParB variant; source: E. coli Rosetta(DE3)pLysS, purified (as wild-type ParB)
T7 sequence (looked up): T4 sequence with Q52A
Description: BLI; ParB-Q52A (10 µM) loaded on closed parS DNA on the biosensor; ParA variants (5 µM) in solution with ATP (1 mM) and 500 mM KCl. The conditions noted are these: both partners purified.

Series [8] deals with the molecule itself. Description: SEC; ParA proteins at 2.5 mg/mL (75 µM) in 25 mM Tris/HCl, 200 mM KCl, 5 mM MgSO4, 2 mM DTT, pH 7.4; Superdex 75 3.2/300; monomer to dimer. Background: SEC sorts molecules by how far they enter the pores of the column.
In another series the target is T8, ParB-Q52A-R13K (Myxococcus xanthus DK1622, UniProt Q1CVJ4 1-296, Q52A | R13K).
T8 construct: ParB of Myxococcus xanthus DK1622, ParB-Q52A variant lacking the conserved residue R13; also called ParB* R13K; R13K variant; source: E. coli Rosetta(DE3)pLysS, purified (as wild-type ParB)
T8 sequence (looked up): T4 sequence with R13K, Q52A
Description: BLI; ParB-Q52A variants loaded on closed parS DNA on the biosensor with CTP; ParA-R238E (5 µM) in solution with ATP and CTP (1 mM each). Particulars: both partners purified. A general note: In BLI a coated tip is dipped into the sample, and binding shifts an interference pattern.

A further series has as its target T9, ParB-Q52A-R13A (Myxococcus xanthus DK1622, UniProt Q1CVJ4 1-296, Q52A | R13A).
T9 construct: ParB of Myxococcus xanthus DK1622, ParB-Q52A variant lacking the conserved residue R13; also called ParB* R13A; R13A variant; source: E. coli Rosetta(DE3)pLysS, purified (as wild-type ParB)
T9 sequence (looked up): T4 sequence with R13A, Q52A
The description is as above. Particulars: both partners purified.

A further series concerns the target T10, ParB (wild type) (Myxococcus xanthus DK1622, UniProt Q1CVJ4 1-296).
T10 construct: ParB of Myxococcus xanthus DK1622, translation product of ORF MXAN_7476; In the BLI assays loaded as a closed clamp on parS-containing DNA with CTPγS; also called M. xanthus ParB; wild-type ParB; source: E. coli Rosetta(DE3)pLysS, purified (HisTrap HP, Ulp1 cleavage, HiTrap SP HP)
T10 sequence (looked up): T4 sequence
Description: BLI; double-biotinylated 234-bp parS DNA on streptavidin biosensor, loaded with ParB or its derivatives (10 µM) and 1 mM CTPγS; ParA-R238E variants in solution with 1 mM ATP; 25 mM HEPES/KOH pH 7.6, 100 mM KCl, 10 mM MgSO4, 1 mM DTT; apparent KD. Particulars: both partners purified.

Series [9] deals with the molecule itself. Description: crystal structure; His6-ParA_(21-274)-D60A (1 mM) with 10 mM ATP and 5 mM ParB_(1-20), sitting drop, 20 °C; crystals held only the ParA dimer with ATP.

Numbering of substitutions follows the chain as printed. Numbers in names are those of the source.

As to “234-bp parS fragment, closed on biosensor”, the results for the Kd in series [1] (150 uM ParB1-20 peptide) and in series [1] (no ParB1-20 peptide) were 400 nM and 7800 nM, respectively.

“TCCGCTTGGCGTGAGTTCCTGACGCTTGGTGGGAAGGATGCGCGTGCTGATGCGTGCACCTCAGTGAAGTGGATGGCGCGGCTGCTCATGCGCGGGTTGCTCAGCGCCTGTTCCACGTGGAACGCGGGATGGATTGATGGTGGGCACGCGCGCAGCGCCGGAGAGTTCGCTGACGGCTCCGCGTTCAGGCTCGTGATGCGCTCATGGTTCATGGAGTGGTGAGTGCTCCACCGG (double strand) [234-bp parS fragment, closed on biosensor]” showed a Kd in series [2] of 400 nM. In addition, the binding entry in [3] is given as “binds”; in series [4], “no binding”; in [5], “binds”; in series [6], “binds”; in series [7], “binds”.

B1: ParA (wild type) (natural protein, Myxococcus xanthus DK1622, UniProt Q1CVJ3 1-283, looked up)
chain: T1 sequence
notes: ParA of Myxococcus xanthus DK1622, translation product of ORF MXAN_7477; No tag cleavage step is described; also called His6-ParA; wild-type ParA; source: E. coli Rosetta(DE3)pLysS, purified (HisTrap HP, HiTrap Q HP)
Regarding B1, the binding result (in the series with ParB-Q52A; in series [8]) was “binds” throughout.

B2: ParA-D110R (natural protein, Myxococcus xanthus DK1622, UniProt Q1CVJ3 1-283, looked up)
chain: T1 sequence with D110R
notes: ParA of Myxococcus xanthus DK1622 with an exchange in the helix H4/H6/H7 region; source: E. coli Rosetta(DE3)pLysS, purified (as His6-ParA)
With B2, the binding result with ParB-Q52A was “binds”.

B3: ParA-R238E (natural protein, Myxococcus xanthus DK1622, UniProt Q1CVJ3 1-283, looked up)
chain: T1 sequence with R238E
notes: ParA of Myxococcus xanthus DK1622, translation product of ORF MXAN_7477; Purified as His6-ParA; no tag cleavage step is described; also called His6-ParA-R238E; source: E. coli Rosetta(DE3)pLysS, purified (HisTrap HP, HiTrap Q HP)
B3: the binding result with ParB-Q52A-R13K and with ParB-Q52A-R13A was “binds” each time. Also, in the series with ParB (wild type), the Kd was about 1000 nM.

B4: ParA-E117R (natural protein, Myxococcus xanthus DK1622, UniProt Q1CVJ3 1-283, looked up)
chain: T1 sequence with E117R
notes: as for B2
As to B4, the binding result with ParB-Q52A is “binds”.

B5: ParA-Y81L (natural protein, Myxococcus xanthus DK1622, UniProt Q1CVJ3 1-283, looked up)
chain: T1 sequence with Y81L
notes: ParA of Myxococcus xanthus DK1622 with an exchange in the helix H4/H6/H7 region; also called Y81L variant; source: E. coli Rosetta(DE3)pLysS, purified (as His6-ParA)
Take B5: in the series with ParB-Q52A, the binding result is given as “binds”.

B6: ParA-D110R/E117R (natural protein, Myxococcus xanthus DK1622, UniProt Q1CVJ3 1-283, looked up)
chain: T1 sequence with D110R, E117R
notes: ParA of Myxococcus xanthus DK1622 with two exchanges in the helix H4/H6/H7 region; source: E. coli Rosetta(DE3)pLysS, purified (as His6-ParA)
Take B6: the binding result in the series with ParB-Q52A is given as “binds”.

B7: His6-ParA_(21-274)-D60A (domain or fragment, Myxococcus xanthus DK1622, UniProt Q1CVJ3 21-274, looked up)
chain: VGRIICISNQKGGVGKTTTAINLAASLASAERRTLLVDMAPQGNAGSGLGIKQDNITGTIYEALLNDRPIQELLHPTELRYLQVVPATPDLTGAEVELVNQDNREFRLRDALRPLAAEYDYIIIDCPPSLGLLTLNALAAADSVLIPLQCEYYALEGLSQLTHTIDLVKQGLNPDLKMEGILLTMFDSRANIAHQVVEEVRGYFKKQVFEVIVPRNVRLSECPSFGKPIILYDIKSKGCESYLALGRELMKRDT
notes: For NMR the protein was 2H/13C/15N-labelled; source: E. coli Rosetta(DE3)pLysS, purified (as His6-ParA)
Regarding B7, in series [9], the binding result is recorded as “binds”.
